For 139 substances, amyloid nucleation score results are on record in the supplement of paper PMC12042874.

± gives the uncertainty stated by the source.

The data set is described as follows: amyloid nucleation score (Sup35N fusion, yeast selection) (log enrichment); library NNK1; higher = more nucleation; inactive = no reads after selection. The gist of the method: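 In psi-negative yeast, Sup35N fusions carrying peptides of 20 random codons were induced with 100 μM copper sulfate for 24 hours. The cells then grew 7 days at 30°C on medium lacking adenine and uracil, and plasmid inserts from input and output were Illumina-sequenced, excluding sequences with under 100 input reads. Nucleation score is the DiMSum log enrichment of output over input reads, centred on the mode score of non-aggregating sequences.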
As for RANSYGGMSNVLW, the amyloid nucleation score stood at 0.281 ± 0.28.

In the case of RCASALVSGVTSVSLRTVQD, the amyloid nucleation score amounted to 0.83 ± 0.73. The substance RCCGLYVSLWIS yielded an amyloid nucleation score of 0.425 ± 0.6.

Substance RCCYCLGLFVWATCVGGVRT returned an amyloid nucleation score of 3.1 ± 0.24. Substance RCDGTQDKCWDKSLLFGERR gave an amyloid nucleation score of 0.618 ± 0.45.

In turn, RCGLAQSSVSSSVKGPRVTW registered an amyloid nucleation score of -0.31 ± 0.6. In the case of RCIVWC, the amyloid nucleation score was determined as 0.207 ± 0.56. As for RCLTPVIRVIYFG, the figure is -0.13 ± 0.3; as for RCQNRH, -0.221 ± 0.46; as for RCVAPAV, 0.151 ± 0.56. For the substance RCVSFPIWRFIPEVLVIWLG, the amyloid nucleation score is -1.04 ± 1.3.

Turning to RCYCDNFVLGLVEL, the amyloid nucleation score was determined as 0.267 ± 0.29.

The substance RCYYLGHVHRICGRWGWGPR gave an amyloid nucleation score of 0.37 ± 0.52. RDDLNTTWFLGRSTLGLMLW yielded an amyloid nucleation score of 0.168 ± 0.6. Turning to RDFWVSRTALMGGYWCWL, the amyloid nucleation score was -0.175 ± 0.35.

RDIRVHATDLNENNCVAHCR gave an amyloid nucleation score of -0.356 ± 0.32. Turning to RDNFEMFSPAAKYALFASGT, the amyloid nucleation score result is “inactive”. As for RDRNNCYFSDDSNLREAT, the figure is -0.634 ± 0.62; as for RDTICITL, 0.311 ± 0.82; as for RDTNKSIQ, 0.208 ± 0.56. As for RENYRAGTFVYGSPRLGPAW, the figure is 0.44 ± 0.88. As for RFDVSMRYLSRSDVYDICAR, the figure is 0.177 ± 0.59. Regarding RFEKTWHWSAIAGRQGGGIF, the amyloid nucleation score is -0.697 ± 0.88.

On to RFFFGYAK, for which the amyloid nucleation score turned out to be 2.02 ± 0.2. The substance RFGFSLSADIMDPRMIVRCM showed an amyloid nucleation score of -0.227 ± 0.24. In turn, RFHNRFLYLFKFIQAQINKC returned an amyloid nucleation score of 0.187 ± 0.41. In turn, RFKRWGKR returned an amyloid nucleation score of 0.39 ± 0.41. Substance RFLAWTSLPQGAAKVIMKC displayed an amyloid nucleation score of 0.126 ± 0.53.

Regarding RFLSQNGNLIPGRRLPTGVR, the amyloid nucleation score was 0.54 ± 0.54. As for RFLSVISDKTIAYWPSDVVS, the figure is 0.377 ± 0.99.

RFLYVGCCINTIVGFTWFRS: the amyloid nucleation score is 3.28 ± 0.11.

The substance RFSAK registered an amyloid nucleation score of 0.585 ± 0.33. As for RFSTTFYSVAVVYKRDSR, the figure is 1.86 ± 0.24; as for RFTSDAQ, -0.524 ± 0.24. RFVRYQSQHFHKLNSWWGCL: the amyloid nucleation score is 0.135 ± 0.39.

Turning to RFWINIPKYSTIL, the amyloid nucleation score is -0.751 ± 1.7. As for RFYKCVLDVNTHLV, the figure is 0.883 ± 0.6; as for RGEKLQEVMSVGYWIGFFNN, 0.907 ± 0.27; as for RGELAVRKPG, 0.402 ± 0.28.

RGGWRTVQCSLNQGWLRRYL showed an amyloid nucleation score of 0.048 ± 0.42. As for RGHLKLVTNYISMSRVSYFS, the figure is 2.07 ± 0.16. Consider RGLGWHHRLSCYRSAGFARA, for which the amyloid nucleation score was -0.719 ± 2.1. As for RGNDLFTQVASMKSV, the figure is -0.207 ± 0.55. RGNPNTVGIITWCDDVFFFQ came in with an amyloid nucleation score of 3.07 ± 0.25.

For RGNVCCTMIC, the amyloid nucleation score is 6.09 ± 0.074.

RGSMSEWNILYVYASIYKGD: the amyloid nucleation score was 1.6 ± 0.42.

Take RGTWNDMASGEEVVAFIGEY: the amyloid nucleation score stood at 0.51 ± 0.35.

RHCLKVFSEDTYESVKVVLR yielded an amyloid nucleation score of 0.428 ± 0.75. As for RHSITLFLVTVETVRACVFK, the figure is -0.714 ± 1.2; as for RILEGVFS, “inactive”; as for RILMFKYGKTWRPQCCQD, 0.04 ± 0.53. As for RILTDLRKICADCNRILPFW, the figure is -0.557 ± 1.2. As for RIMLFFCCSSKVFDFPVLLM, the figure is 6.4 ± 0.064; as for RIPASFRITYVDSIKCKPF, 4.15 ± 0.088. The substance RIYSFHILVS came in with an amyloid nucleation score of -0.629 ± 0.38. The substance RKRNKYILYYRCNRWFQLYC gave an amyloid nucleation score of -0.323 ± 1.6. As for RKSPATVVFSRPSLWLYGRR, the figure is 2.97 ± 0.094; as for RKWNS, 0.152 ± 0.72. As for RLAYYFKGNANDFLAYLAKY, the figure is -0.66 ± 0.76; as for RLCRTVEWCGCYSIPNLQCA, 0.118 ± 0.46; as for RLCWQDIGTLFVSWPRMIFV, 0.071 ± 0.45. In the case of RLEYCSRRWLANTLSGGRSL, the amyloid nucleation score was 0.002 ± 0.96. As for RLFALLWNDFDRSGVAMPVL, the figure is -0.379 ± 0.36; as for RLFHFWQSDGLVGSTKRVDY, 0.128 ± 0.42. With RLFITCRAL, the amyloid nucleation score was determined as 2.52 ± 0.18. As to RLFLSLLMKSRTIMRRKGLV, the amyloid nucleation score is 2.54 ± 0.15.

The substance RLGLVVSVGRRRLLTAQLGK registered an amyloid nucleation score of 1.38 ± 0.72.

RLKYYNYERFRLVVLCRVHG registered an amyloid nucleation score of -0.053 ± 1.1. As for RLLEIWFMLRFGLFVSQCTI, the figure is -0.148 ± 0.34. As for RLLGYLAGVGNVKICRPSAV, the figure is 0 ± 1; as for RLLPGFERGVLYYWA, 0.568 ± 0.43; as for RLMDTYAEAHTQDRDMIRDV, 0.286 ± 0.49. As for RLQDSLPTSEVTEIPPPAN, the figure is -0.405 ± 0.33. In turn, RLRSMAAP returned an amyloid nucleation score of 0.513 ± 0.66. As for RLRTNVLSNRVGDPIMTSHV, the figure is 0.158 ± 0.54; as for RLSIFRLYPLLCRRG, 0.163 ± 0.34; as for RLTFKYIKFAMS, 0.206 ± 0.36. As for RLTVTADWHHHWRLVRQFKA, the figure is -0.044 ± 0.71; as for RLVSRPRSLLQCYWGLVC, 0.392 ± 1.4; as for RLYSYVFSGSPHIGWHLCSM, 3.82 ± 0.11. RLYTFVLPRFILLEKRHSTN registered an amyloid nucleation score of 0.255 ± 0.32. As for RMALCKSVCFTFWNIF, the figure is 3.69 ± 0.13; as for RMHYIG, 0.106 ± 0.43.

Regarding RMLFSYPCESISSHLILCEV, the amyloid nucleation score was -0.181 ± 0.5. RMLLENVSVKRR: the amyloid nucleation score was determined as 0.678 ± 0.66. As for RMLLRFYIATGYLWSIQNCR, the entry is “inactive”; as for RMLTARNGLGMMRL, -0.162 ± 1.1; as for RMMVPYNHFYKSLWSGSTAY, 0.959 ± 0.68. As for RMVNKTECTRRRIITTSNWI, the figure is 0.869 ± 0.81; as for RMVTTIIERVSIVCMKPSYR, 1.35 ± 0.88; as for RNASIRVTSQVCYVNS, 1.3 ± 0.27.

RNCFMGRTVNSVSNYVESSW: the amyloid nucleation score entry was “inactive”. As to RNELTVFGLISPWESVFNLG, the amyloid nucleation score entry was “inactive”.

On to RNHCVYLECFDLVNHWMPKD, for which the amyloid nucleation score is -0.24 ± 0.64. As for RNMVSLRHSEDVICVQDTTP, the figure is -0.729 ± 0.34; as for RNNEDGRLKDRRRGLSHGQG, -0.531 ± 0.31; as for RNSMGLLAVEDVC, -1.16 ± 0.61. As for RNSRAMIFEMHVVGLWWQSC, the figure is -0.538 ± 2.1; as for RNTRTDSSTQTLLIVSHH, 0.011 ± 0.51; as for RNTVQYVFYPQDLWWSAGVQ, 5.429 ± 0.048. As for RNVLWMILMYRCRSGGLCNG, the figure is 0.737 ± 0.52; as for RNYFCIMYRYRCCKV, 4.23 ± 0.085.

Consider RPHSGVIDDL, for which the amyloid nucleation score was determined as 0.349 ± 0.51. As for RPKHTGTINYKHVHTNYVEG, the figure is 1.36 ± 0.47. On to RPLVRQPGEDYIFGLSSMCL, for which the amyloid nucleation score was -0.203 ± 0.49.

RPMTVSKEAAKSDGCQKLNT: the amyloid nucleation score is -0.634 ± 0.48. RPNSYGSLWRERIGLIYTYE: the amyloid nucleation score stood at 1.33 ± 0.79.

Substance RQFRIGNYENFATREWALGL yielded an amyloid nucleation score of 1.7 ± 0.14. As for RQGLGAVVNENV, the figure is 0.137 ± 0.43; as for RQGPGRLHSTCKTL, -0.257 ± 1.4; as for RQNVQWR, 1.86 ± 0.62. As for RQYDMDLVWKRSQNARKRS, the figure is 0.033 ± 0.7. The substance RRARFFFRGYY came in with an amyloid nucleation score of 6.12 ± 0.078.

RRAYIYWNRTCFFLVILLFQ showed an amyloid nucleation score of 0.538 ± 0.84. In the case of RRLKETKT, the amyloid nucleation score entry was “inactive”. RRLTLYANFMRLEILSLNVN had an amyloid nucleation score of 0.146 ± 0.43. As for RRMVTCLQLIVRNLRSCACC, the entry is “inactive”; as for RRRMFSCLDPEVWEVQRGRV, -0.348 ± 0.68. RRSPGYMDLCWNGWFGRAVR displayed an amyloid nucleation score of 0.207 ± 0.5. As for RRSQCSVEPGVWHRVRSFLV, the figure is 0.35 ± 0.77; as for RRSYVSSEMNTSKRKSCPLS, 0.659 ± 0.45. As for RRWGFRAERVL, the figure is 0.269 ± 0.61. As for RRYFSLYLAGSLELMFAWVM, the figure is -1.79 ± 2.7.

For RSFNYVLSTL, the amyloid nucleation score was 0.45 ± 0.42. As for RSGIILLVGVS, the figure is -0.655 ± 0.68; as for RSGMFMGDWYSAAWKGKTSS, 0.137 ± 0.31; as for RSGSLCGFLREKKVRNTFWV, -0.376 ± 0.59. Turning to RSPIGGLLWINLRSPACEWG, the amyloid nucleation score entry was “inactive”. As for RSRGCPRIFNGAKC, the figure is -0.392 ± 0.23; as for RSSSYNSLIRKISDKLVGAA, 1.09 ± 0.56; as for RSVYSDLSQTYRLQDFFETM, -1.69 ± 2.4. As for RSYESCRAWLDEDGSVPIEC, the figure is 1 ± 0.49; as for RSYSNPLSSVSLSNYSFGVY, -0.353 ± 0.36.

Substance RTCHDWVIEGSMRILTARIM had an amyloid nucleation score of -1.29 ± 1.8. As for RTDLGVRIKF, the figure is 0.77 ± 0.55.

In turn, RTDWYGEDWHYV displayed an amyloid nucleation score of -1.31 ± 1.4. Take RTEVIKMNLG: the amyloid nucleation score is -0.085 ± 0.42. As for RTKLVEHSMFCNGGEKRHTP, the figure is 0.574 ± 0.56.

RTRLFHDLLLCAAHIRLRIR returned an amyloid nucleation score of 0.133 ± 0.38.
